Source: the DeepSol protein solubility set

Test: soluble on expression in E. coli; label from the status in PepcDB or PDB records

Sequence | soluble on expression in E. coli
MVRVEDSNGADTDTNPEGESSGYVRLAGNGLPGGEQQQASSSGVAAAPSVDSSPGRSVPLAIASSSSPANVANNQYAIPVDENGHRYVGLVNQAMTCYLNSLVQSLYMTPEFRNAMYDWEYVQQPAHIKEQRKKAEQSIPCQLQKLFLLLQTSENDSLETKDLTQSFGWTSNEAYDQHDVQELCRLMFDALEHKWKGTEHEKLIQDLYRGTMEDFVACLKCGRESVKTDYFLDLPLAVKPFGAIHAYKSVEEALTAFVQPELLDGSNQYMCENCKSKQDAHKGLRITQFPYLLTIQLKRFDFDYNTMHRIKLNDKMTFPDVLDLNDYVNKEKRSTTSSAWQQIGKNKSENEEDDMELGSPNPKRCTPGVQSPNRYQGSENVCVGQPIDHAAVDDIVKTSGDNVYELFSVMVHSGNAAGGHYFAYIKNLDQDRWYVFNDTRVDFATPLEIEKSFGGHPSGWNQSNTNAYMLMYRRIDPKRNARFILSNQLPQHIKDSQEKWKRLEREAEDERLRKLSLIQVYVTINYPFPSVVTLPDKKQLDLTPQKYQIAEDFGEYKTEISREMPIKNVFNHAFEFFNERARAYNLPFTKNSARLIYVEHGSLMMDFKSKADMDKKLRSVFNVNHGEPGSMYGVHFILDVRIASSFFPVDIKNKITIKVQRVDIGKKTTANELIVVVDANEKMIKVKSWIGGQFRDDIHGVLNARVVLEVASSRCEFMMIDVSHNATEFGSLIQQYVGHTTPTLYYDGGLNTMVTKESQEATLADRKLPFDKSVMYHILDRKCFSTMVKVRLPSQEEIEKAASTKNAYQGPTWAETIAIMKEEDRLWNEPRAAVEVMSTVSRTDTTDHALVADTDDEPIPSGRGSTASMRSVSMDDIDADIGISGSLCNNTPQMSPCVSEGDDADESQLDGKSQLMSDYMQKTSPDFYYNRDPQNHLNKNLKIALGDETPSESLSAVSSGQSTLVPSTSNQALSSMTRSDEAVDGKIVTVFSHENFHKLDVDSRMRVLEFKKWVAEQLEMDKDQFVIVKHASDDGSDSGYEANFMDDETVSGAFQSCFISIKLRAPLKSDEKMMQIILFDILENLRENWKPLFELPVSQSTVIGDVLLQCLRMYKEVYGEELTPKMVRLRELGGSGVGTGRAVLNPNDTLEKRSYNWCSHLYLQIITDEAMIGKPGEPIMVRRFRPSTVEVNPTHEVLVDANAENPVVSFVEALSKISGIPVERLAITDLKEFNWQKWPYLKSRLDMLENKVNFTKDLQVTYPLPREFLDKVGSRVLYYKDSDEEAKVLSEDERKQIKIKENGQSANANRRKERPLRIQMSSVCEA | not soluble
MGSDKIHHHHHHMLTTPEMREQFRNDGVTIFRNCLNEAQLAQCYDGFKWDMANPGPHVYKGGLIGTTLHTHIDIANPEAKSELDDLAAALPFGQIFQELWDSKNVWYFAEEIFAKEGGKSGRGPWHQDTANLPWAGRHWGNAWISFQKLPKKNSLEIVRGSHLGIQYDGASFDSAEDPTDPLYGDGTYPRLPHIDNELARDPNSWDIVSFDINPGDIVLLHPRSLHGGAQVDADCPTRHTLVLRFFGDDATFRELPTCNPKYARNGPLFQKEMAKLNQGDAFRSPVFRQVAGV | not soluble
MGSDKIHHHHHHMVMTVGDSRVGKSTVIKLLLEMYQIQGKRLKVYDHDNRDRFLAYKDLVCIEKIDFFNTRTDRIFNDLIVDSLDIILVDMPGQYLDKICQYIIQSELLGALAEYGWSLTFVQPISHRTDCIDYLSQIVQTATNNANYVVVKNYHFAPEFREYEQTMAKNLLMIGGTEIELTALHRNHYQAMEKAGIPYSQVCQDISMILFLRSYIYQWIKKFHDSVMDNDLAVKYLGLD | not soluble
MGSDKIHHHHHHMSVSSTIEWTEATWNPTTGCHKISPGCKNCYAERFAERWRGVAGHPYEQGFDVKTWHERLKMPLSWKKPRLIFVNSMSDLFLDDISEEFIKDVFNVMEEASWHQFQVLTKRPQRMLKIANSIKKWPSNIWAGVSIESQAWVWRSEILKEIPAKIRFLSCEPLLGSLTLSLDELHWIIVGGESGVGARPMNIEWVRDIREQCIQANVPFFFKQWGGIQKKKYGREIDGRTWDGFPETIVDKNTKQVSPVK | not soluble
MGSDKIHHHHHHMSNNIFTVYGEVPELVEKKTKEIVNDYLGQKIDDFNYVKYNLYESDLTPIIEETLTMPFFSNKKAIVVKNSYVFTGEKFSKDLNHNSDELIKFLEKYDGENLIIFEVYQPKLDERKKLTKTLKKNAQLKKIEQMSEKELKHWIKNTLNNNYKDIKQDALELFIELTGVNYNIVSQELEKLILFIGERPIINKDDIDLIINRSLEQNVFLLTEYIQKGNKNKAIQLVNDLIIMKEEPIKLLALITSNYRLYYQCKILSQKGYSGQQIAKTVNAHPYRVKLALNQSRHYKLESLFNIINACAETDYKLKSSYMDKQLILELFILSL | not soluble
VRILATVAATAAAVAALITPAHADGPLGVKGDTLTLPLADAITALPVAEESRAGYQRSAFKHWVDADKDGCNTRSEVLKAEAVVAPEQGTRCKLSGGQWYSAYSNTYVNSASALDLDHLVPLAEGWDSGASAWTAKEREAYANDLGDDRSLIAVTAATNRSKADQDPAEWLPPYEPYHCQYLTDWIATKLRWQLTVDQAERDTLTQATTSCPNLPVEVTLAR | soluble
MIYFIRKKKWLKQLEKGEAMKYAILIGDGMADYPIEKLGNRTILQAARTPAMDSIAARGRAGLAKTVPDSFPPGSDVANMSILGYDPATYYSGRAPLEAASMGVALAADDVAFRCNLITTEHGMIKDYSAGHISSDEAEILIDTLDYELSTENIRFYPGISYRHLIVAGNNLGAETECTPPHDITGEKIDKYLPRGKDGEFFSELIEASKVVLELHPVNLKRVEEGKNPANSIWVWGQGYAPKFTAFMKLYGKKGAVISAVDLLKGIGIYAGLDVIEVHGATGYLDTNYEGKVRAAIEALKTRDLVFVHVEAPDEAGHEGSIEKKLKAVEDFDSRIVAPILEYAENSDEPFTILVLPDHPTPISVKTHTRDPIPFAIYRTDKPETDNVEAFDEESVKNGSMGLVKASDLIGILIKS | not soluble
MGHHHHHHSHMLKDFLKEQGFEVRENHEVDAVIIGQDKEIEFKKIKNATSAVFLKGAKIIPVNLSKIVKDSDGLYFPGSGSYAYMFKHATNYEGEIPNLGKPSKEFINLALEGLPREKVFLISDDIYTDLMGAKELGIGTIFMTTGKYKQEELKKANFKPDYVFHSLKELMREIKKWLS | not soluble
MRHAKSAYPDGIADHDRPLAPRGIREAGLAGGWLRANLPAVDAVLCSTATRARQTLAHTGIDAPARYAERLYGAAPGTVIEEINRVGDNVTTLLVVGHEPTTSALAIVLASISGTDAAVAERISEKFPTSGIAVLRVAGHWADVEPGCAALVGFHVPR | soluble
MSLSQSSRLSALPIFQASLSASQSPRYIFSSQNGTRIVFIQDNIIRWYNVLTDSLYHSLNFSRHLVLDDTFHVISSTSGDLLCLFNDNEIFVMEVPWGYSNVEDVSIQDAFQIFHYSIDEEEVGPKSSIKKVLFHPKSYRDSCIVVLKEDDTITMFDILNSQEKPIVLNKPNNSFGLDARVNDITDLEEGHHHHHH | soluble
MGNQYVKPERTGNSPYTRSGVPPPALVKTGDKPLHRVNDRMSLELHMADERVRAAGLSPAEREWRKKWVHDQHLHADEPVVVDAVHRQLNPIRTAYRLPWDKFYLHYLKPTFGVYYGTAIRVTAPKLLMAFVVVQTAYYYWKYEVKDWTHLRGLESMPQKEVIASAPAIEEKFPGLMDKGLANPSKDDYYTPTFNKRTAYLDVGETKRPW | not soluble
GMLPDDVNQADVLADVTAAFYRYEKALTGNDVAVLDELFWHDEKTVRYGAGENLYGIEEIRAFRLARPSAGLDRALRNTVITTYGHDMAVASTEFTRTGSTKIGRQMQTWVKMPEGWRIVAAHVSLMSE | soluble
MSIEGGNYRRIRNFVDRECAKECIEDFSCFGYEWNSEEKICYLKSRSTSGKLIAKPNTMVGFCQDDEDEVRYRLQDHVIVGPIVMEADDVPDGEECKENCRKVGALYYSWRPNSDNQRSNVVPVEEEEDDEEQEVLGHCECISTMNELRLEYDAFSGFIPIPKHKHRRSILLRPFEI | not soluble
MRLMKSYKNLKEEVWDTNRCSGCGACVAVCPVNNLYFREESPVKFECDECSCIIVPADIVEHPISAEFCKTVVYDVPCGACYDACPRIKKSAIPKPKGLGNILKAVRAKASIEIKNAQNGGVVTAILANAFDEGLIDGAIVMMDDKWTLEPESYLALSKEDVLKSAGSKYLWKGPILKALKTAVMEKKLKKLAVVGTPCVINAIYQILSSDNDLLKPFREAIRLKIALFCFETYDYSKMIKKLNEDGIEPWEVKKMDIESGKLKITLINGNTVEYKLKDVESAMRNGCKVCGDFTGLTSDISVGNVGTEKGYSTVLIRNKWGEGFFKRAVYNGYITYDENVDLEAVEKLVELKKKRVKKDLEHHHHHH | soluble
